In this test the target is mouse glycophorin-A (GYPA) on the mouse erythrocyte surface (mouse) (UniProt P14220). The test is described as follows: equilibrium binding to mouse erythrocytes, flow cytometry, one-site binding fit.

Sequence of ERY1-OVA (ovalbumin chemically conjugated with ERY1 peptide through SMCC) (P01012 2-386, form in doubt): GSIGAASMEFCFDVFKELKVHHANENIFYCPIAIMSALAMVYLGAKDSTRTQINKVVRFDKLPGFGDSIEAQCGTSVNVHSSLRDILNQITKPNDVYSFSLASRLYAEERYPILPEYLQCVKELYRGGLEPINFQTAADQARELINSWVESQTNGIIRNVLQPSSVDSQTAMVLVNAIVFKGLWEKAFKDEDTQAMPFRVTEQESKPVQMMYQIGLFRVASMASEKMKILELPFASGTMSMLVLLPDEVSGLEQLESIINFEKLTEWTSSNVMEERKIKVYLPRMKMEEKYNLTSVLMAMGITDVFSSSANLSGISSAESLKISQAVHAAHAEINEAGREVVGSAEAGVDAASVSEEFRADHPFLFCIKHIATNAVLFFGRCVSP

On to “ERY1-OVA (ovalbumin chemically conjugated with ERY1 peptide through SMCC) (from UniProt P01012 2-386)”, for which the dissociation constant Kd turned out to be 6.2 nM.

The term Kd denotes a measure of binding affinity in units of concentration. The low end stands for tighter binding, the high end for weaker binding.

Source of the values: patent publication EP2814500B1.
